Legend:
GST-Su(H) (CSL) [1] = target: T1, GST-Su(H) (CSL) (UniProt P28159 110-594); experiment: competition; EMSA, labeled M1 probe; 2.84-fold at 10x; ITC: 50 mM sodium phosphate pH 6.5, 150 mM NaCl, 10 C (10 uM CSL in cell, 100 uM DNA in syringe). EMSA: 150 mM KCl, 50 mM Tris pH 7.4, 1 mM DTT, 2% polyvinyl alcohol, 30 ng/ul poly(dI-dC), on ice 30 min, 25 fmol biotin probe in 5 ul; conditions: protein: recombinant; tags: N-terminal GST; blunt
GST-Su(H) (CSL) [2] = target: T1, GST-Su(H) (CSL); experiment: competition; not detectable at 125x excess; ITC: 50 mM sodium phosphate pH 6.5, 150 mM NaCl, 10 C (10 uM CSL in cell, 100 uM DNA in syringe). EMSA: 150 mM KCl, 50 mM Tris pH 7.4, 1 mM DTT, 2% polyvinyl alcohol, 30 ng/ul poly(dI-dC), on ice 30 min, 25 fmol biotin probe in 5 ul; conditions: protein: recombinant; tags: N-terminal GST; blunt
GST-Su(H) (CSL) [3] = target: T1, GST-Su(H) (CSL); experiment: competition; failed to compete at 125x; ITC: 50 mM sodium phosphate pH 6.5, 150 mM NaCl, 10 C (10 uM CSL in cell, 100 uM DNA in syringe). EMSA: 150 mM KCl, 50 mM Tris pH 7.4, 1 mM DTT, 2% polyvinyl alcohol, 30 ng/ul poly(dI-dC), on ice 30 min, 25 fmol biotin probe in 5 ul; conditions: protein: recombinant; tags: N-terminal GST; blunt
GST-Su(H) (CSL) [4] = target: T1, GST-Su(H) (CSL); experiment: EMSA; labeled probe; self-competes at 25x excess; ITC: 50 mM sodium phosphate pH 6.5, 150 mM NaCl, 10 C (10 uM CSL in cell, 100 uM DNA in syringe). EMSA: 150 mM KCl, 50 mM Tris pH 7.4, 1 mM DTT, 2% polyvinyl alcohol, 30 ng/ul poly(dI-dC), on ice 30 min, 25 fmol biotin probe in 5 ul; conditions: protein: recombinant; tags: N-terminal GST; label: 3' biotin when used as probe; blunt
CSL (RBPJ) [5] = target: T2, CSL (RBPJ) (Mus musculus, UniProt P31266 53-474); experiment: ITC; no binding detected; ITC: 50 mM sodium phosphate pH 6.5, 150 mM NaCl, 10 C (10 uM CSL in cell, 100 uM DNA in syringe). EMSA: 150 mM KCl, 50 mM Tris pH 7.4, 1 mM DTT, 2% polyvinyl alcohol, 30 ng/ul poly(dI-dC), on ice 30 min, 25 fmol biotin probe in 5 ul; conditions: protein: recombinant; tags: GST tag cleaved off
CSL (RBPJ) [6] = target: T2, CSL (RBPJ); experiment: ITC; K = 2.2 +/- 1.4 x10^7 M-1; n=3; ITC: 50 mM sodium phosphate pH 6.5, 150 mM NaCl, 10 C (10 uM CSL in cell, 100 uM DNA in syringe). EMSA: 150 mM KCl, 50 mM Tris pH 7.4, 1 mM DTT, 2% polyvinyl alcohol, 30 ng/ul poly(dI-dC), on ice 30 min, 25 fmol biotin probe in 5 ul; conditions: protein: recombinant; tags: GST tag cleaved off
CSL (RBPJ) [7] = target: T2, CSL (RBPJ); experiment: ITC; K = 5.9 +/- 1.0 x10^5 M-1; n=3; ITC: 50 mM sodium phosphate pH 6.5, 150 mM NaCl, 10 C (10 uM CSL in cell, 100 uM DNA in syringe). EMSA: 150 mM KCl, 50 mM Tris pH 7.4, 1 mM DTT, 2% polyvinyl alcohol, 30 ng/ul poly(dI-dC), on ice 30 min, 25 fmol biotin probe in 5 ul; conditions: protein: recombinant; tags: GST tag cleaved off
GST-Su(H) (CSL) [8] = target: T1, GST-Su(H) (CSL); experiment: competition; EMSA, labeled M1 probe; 2.4-fold vs M3; ITC: 50 mM sodium phosphate pH 6.5, 150 mM NaCl, 10 C (10 uM CSL in cell, 100 uM DNA in syringe). EMSA: 150 mM KCl, 50 mM Tris pH 7.4, 1 mM DTT, 2% polyvinyl alcohol, 30 ng/ul poly(dI-dC), on ice 30 min, 25 fmol biotin probe in 5 ul; conditions: protein: recombinant; tags: N-terminal GST; blunt
CSL (RBPJ) [9] = target: T2, CSL (RBPJ); experiment: ITC; K = 2.0 +/- 0.5 x10^6 M-1; n=3; ITC: 50 mM sodium phosphate pH 6.5, 150 mM NaCl, 10 C (10 uM CSL in cell, 100 uM DNA in syringe). EMSA: 150 mM KCl, 50 mM Tris pH 7.4, 1 mM DTT, 2% polyvinyl alcohol, 30 ng/ul poly(dI-dC), on ice 30 min, 25 fmol biotin probe in 5 ul; conditions: protein: recombinant; tags: GST tag cleaved off

T1 sequence (P28159 110-594): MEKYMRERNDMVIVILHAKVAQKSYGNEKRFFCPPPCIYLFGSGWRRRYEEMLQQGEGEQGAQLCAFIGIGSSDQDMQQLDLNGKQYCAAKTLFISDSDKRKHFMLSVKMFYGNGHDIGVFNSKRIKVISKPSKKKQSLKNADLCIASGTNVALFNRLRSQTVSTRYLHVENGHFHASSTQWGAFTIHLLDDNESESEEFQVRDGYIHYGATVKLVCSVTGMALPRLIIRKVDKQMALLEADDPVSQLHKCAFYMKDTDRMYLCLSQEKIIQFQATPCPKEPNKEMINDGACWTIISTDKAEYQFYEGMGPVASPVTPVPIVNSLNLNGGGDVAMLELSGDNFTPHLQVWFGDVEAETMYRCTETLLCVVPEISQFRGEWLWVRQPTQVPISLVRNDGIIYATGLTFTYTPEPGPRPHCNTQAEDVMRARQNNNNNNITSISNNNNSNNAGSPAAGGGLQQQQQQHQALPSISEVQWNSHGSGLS
T2 sequence (P31266 53-474): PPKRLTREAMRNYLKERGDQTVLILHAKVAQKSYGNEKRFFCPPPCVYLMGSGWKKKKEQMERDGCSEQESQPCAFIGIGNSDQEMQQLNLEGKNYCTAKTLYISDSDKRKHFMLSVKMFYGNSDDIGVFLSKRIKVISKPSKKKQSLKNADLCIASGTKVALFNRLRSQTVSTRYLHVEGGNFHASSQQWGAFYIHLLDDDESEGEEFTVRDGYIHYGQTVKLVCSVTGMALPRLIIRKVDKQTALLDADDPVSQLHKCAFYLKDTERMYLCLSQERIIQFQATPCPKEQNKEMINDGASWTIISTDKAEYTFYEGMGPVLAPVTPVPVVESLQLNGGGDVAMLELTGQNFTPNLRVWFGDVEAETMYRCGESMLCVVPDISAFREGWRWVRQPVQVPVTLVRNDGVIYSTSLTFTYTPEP
T1 sequence (P28159 110-594): as the sequence (P28159 110-594) above

B1: M3 (S2, TGTGGGAA) (dsDNA)
DNA 1: ACCGAAACTGTGGGAACTGGTAGAAAG
DNA 2: CTTTCTACCAGTTCCCACTGTTTCGGT
binding signal (GST-Su(H) (CSL) [1]): 3.67 fold difference vs M1 at 25x excess

B2: M11 (S10, CATGGGGA) (dsDNA)
DNA 1: ACCGAAACCATGGGGACTGGTAGAAAG
DNA 2: CTTTCTACCAGTCCCCATGGTTTCGGT
binding result (GST-Su(H) (CSL) [2]): no binding

B3: M8 (S7, TATAAGAA) (dsDNA)
DNA 1: ACCGAAACTATAAGAACTGGTAGAAAG
DNA 2: CTTTCTACCAGTTCTTATAGTTTCGGT
binding result (GST-Su(H) (CSL) [3]): no binding

B4: M1 (S1, CGTGGGAA) (dsDNA)
DNA 1: ACCGAAACCGTGGGAACTGGTAGAAAG
DNA 2: CTTTCTACCAGTTCCCACGGTTTCGGT
binding result (GST-Su(H) (CSL) [4]): binds

B5: ITC duplex TCATACCT (dsDNA)
DNA 1: GCTACTCATACCTAGAACG
DNA 2: CGTTCTAGGTATGAGTAGC
binding result (CSL (RBPJ) [5]): no binding

B6: ITC duplex CGTGGGAA (dsDNA)
DNA 1: GTTACCGTGGGAAAGAAAG
DNA 2: CTTTCTTTCCCACGGTAAC
Kd (CSL (RBPJ) [6]): 60 nM

B7: ITC duplex CGTGTGAC (dsDNA)
DNA 1: GTTACCGTGTGACAGAAAG
DNA 2: CTTTCTGTCACACGGTAAC
Kd (CSL (RBPJ) [7]): 1720 nM

B8: M4 (S3, CGTGTGAA) (dsDNA)
DNA 1: ACCGAAACCGTGTGAACTGGTAGAAAG
DNA 2: CTTTCTACCAGTTCACACGGTTTCGGT
binding signal (GST-Su(H) (CSL) [8]): 9 fold difference vs M1 at 25x excess

B9: ITC duplex TGTGGGAA (dsDNA)
DNA 1: GTTACTGTGGGAAAGAAAG
DNA 2: CTTTCTTTCCCACAGTAAC
Kd (CSL (RBPJ) [9]): 500 nM

From publication PMC4176381, “A combination of computational and experimental approaches identifies DNA sequence constraints associated with target site binding specificity of the transcription factor CSL”
